This assay concerns the target OTULIN-diUb adduct (endogenous OTULIN coupled to bio-Ub_(G76Dha)-Ub) (human (endogenous in HEK293 and Jurkat T cells) | not stated) (UniProt Q96BN8). The assay is described as follows: pull-down; biotin-PD of the OTULIN-diUb adduct formed in extracts of transfected HEK293 cells or of Jurkat T cells (with or without TNF-α, 20 ng/mL) on streptavidin agarose, three washes with co-IP buffer; western blot of eluate, input and supernatant. A general note: Immunoblotting shows a protein as a band on a membrane.

Among the data in PMC5658516 are percent of the protein removed from the extract by the biotin-PD values, retold here.

“endogenous HOIL-1 (from UniProt Q9BYM8 1-510) (natural protein)” yielded a percent of the protein removed from the extract by the biotin-PD of 25%.
Under “endogenous SHARPIN (from UniProt Q9H0F6 1-387) (natural protein)” stands 25%; under “endogenous HOIP (from UniProt Q96EP0 1-1072) (natural protein)”, 25%.
